# Source: publication PMC3458437
# “And” between values parts separate entries of the source, which are not always exact repeats. Identical values can stand only once.
# B1: methylphosphonate synthase (MPnS) (Nitrosopumilus maritimus SCM1) (protein)
# chain: MEKKIDFKPDSYLIRSGNNFLGILNDIKRRPEDAANELGVSIEEINSIISGKQKISPSLIEKAVNIWPVNERDFYIVSDDCSSGILIMTSQDSIKSSRIMERAGKPYYEYRDTAMSKTAPFRPEWILELCKVENNDPENPKAQWNNGHFMHQFTYFIGEVNFYYKDPEGKKHVAIMNTGDSMYITPFTPHTFTTRDGASQNGLILALTYGSKLTGDIQQELSSLSLDCGSQYALDFTNHENASLSLLEYYFELSNLTKEKFAKRTNFSMETLADFFTKKKLPTFDELKIIAKALNVNSRDLMPNDLTESKVIVKTHDQCDHWKYPESGNYEFYELASTTALPHSKAFEIDVSSSEDLNLDLKVGLHQYVYNIGDSALTINWNYENKTYQKSLNPGDSAYIKPFVPHNFRGNGKILILRIGGKISGDSQRELSFVGRENTQRAISETMQWFDPKGSNS
# Substrate: O=P(O)(O)CCO
# Test: O2 consumption, Clark-type oxygen electrode, initial rates
# Type: biochemical, Nitrosopumilus maritimus
# Details: co-substrate O2 about 250 μM; Fe(II)-reconstituted enzyme; labelled compound
protein,measurement,value
B1,Km,7.1 ± 0.8 µM and 6.5 ± 1.5 µM and 7.2 ± 1.4 µM
same,kcat,0.17 ± 0.01 s⁻¹
same,kcat/Km,24000 M⁻¹ s⁻¹ (2×) and 26000 M⁻¹ s⁻¹
